Assay [1] deals with GLP1R (Homo sapiens, UniProt P43220). The note with it: prior art value; cited from earlier work.
The target of assay [2] is SCTR (Homo sapiens, UniProt P47872). The following applies: prior art value; cited from earlier work.
Assay [3] concerns the target T1, human secretin receptor (hSCTR) (human, UniProt P47872 23-440). The assay can be described thus: cell-based or functional assay.
In assay [4] the target is T2, human GLP-1 receptor (hGLP1R) (human, UniProt P43220 24-463). The assay can be described thus: cell-based or functional assay.
Assay [5] addresses T1, human secretin receptor (hSCTR). The assay can be described thus: cell-based or functional assay. The source holds these as a separate data set.
The target in assay [6] is T2, human GLP-1 receptor (hGLP1R). The assay can be described thus: cell-based or functional assay. This is another data set of the same source.

Like-named read-outs stand apart in the source and are kept apart here. Square brackets hold non-standard residues; d marks the D form. Ends that are not written are not given here. Aib = CC(C)(N)C(=O)O

In general, EC50 refers to the concentration that produces a half-maximal response.

T1 sequence (P47872 23-440): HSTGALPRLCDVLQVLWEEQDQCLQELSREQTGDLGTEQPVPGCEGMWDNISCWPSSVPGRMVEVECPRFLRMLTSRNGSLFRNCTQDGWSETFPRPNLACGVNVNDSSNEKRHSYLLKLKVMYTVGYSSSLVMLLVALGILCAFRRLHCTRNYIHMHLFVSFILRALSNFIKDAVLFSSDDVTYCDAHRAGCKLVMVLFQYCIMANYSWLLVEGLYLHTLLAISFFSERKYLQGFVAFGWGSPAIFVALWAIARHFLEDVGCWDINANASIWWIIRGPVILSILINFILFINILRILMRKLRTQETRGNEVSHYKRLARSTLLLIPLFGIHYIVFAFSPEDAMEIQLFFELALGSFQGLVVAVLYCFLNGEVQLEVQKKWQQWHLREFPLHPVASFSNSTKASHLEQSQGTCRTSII
GLP1R, sequence (P43220 24-463, species assumed): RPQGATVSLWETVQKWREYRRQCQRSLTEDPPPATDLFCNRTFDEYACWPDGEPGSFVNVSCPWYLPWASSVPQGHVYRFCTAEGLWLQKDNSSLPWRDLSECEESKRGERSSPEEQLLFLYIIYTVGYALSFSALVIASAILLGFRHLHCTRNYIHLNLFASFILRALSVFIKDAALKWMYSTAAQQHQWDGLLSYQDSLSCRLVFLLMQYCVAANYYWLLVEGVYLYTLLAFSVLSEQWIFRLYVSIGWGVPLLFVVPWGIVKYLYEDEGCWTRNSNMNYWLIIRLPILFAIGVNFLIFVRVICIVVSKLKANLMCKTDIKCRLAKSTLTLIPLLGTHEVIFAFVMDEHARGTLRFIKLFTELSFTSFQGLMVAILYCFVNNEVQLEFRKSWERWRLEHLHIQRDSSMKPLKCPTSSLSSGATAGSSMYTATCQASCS
SCTR, sequence (P47872 23-440, species assumed): as the sequence (P47872 23-440) above

For the molecule “H-Aib-EGTFTSDLSRLLEGAALQRFIQWLV (H[Aib]EGTFTSDLSRLLEGAALQRFIQWLV-NH2; N-terminus assumed; SMILES CC[C@H](C)[C@H](NC(=O)[C@H](Cc1ccccc1)NC(=O)[C@H](CCCNC(=N)N)NC(=O)[C@H](CCC(N)=O)NC(=O)[C@H](CC(C)C)NC(=O)[C@H](C)NC(=O)[C@H](C)NC(=O)CNC(=O)[C@H](CCC(=O)O)NC(=O)[C@H](CC(C)C)NC(=O)[C@H](CC(C)C)NC(=O)[C@H](CCCNC(=N)N)NC(=O)[C@H](CO)NC(=O)[C@H](CC(C)C)NC(=O)[C@H](CC(=O)O)NC(=O)[C@H](CO)NC(=O)[C@@H](NC(=O)[C@H](Cc1ccccc1)NC(=O)[C@@H](NC(=O)CNC(=O)[C@H](CCC(=O)O)NC(=O)C(C)(C)NC(=O)[C@@H](N)Cc1c[nH]cn1)[C@@H](C)O)[C@@H](C)O)C(=O)N[C@@H](CCC(N)=O)C(=O)N[C@@H](Cc1c[nH]c2ccccc12)C(=O)N[C@@H](CC(C)C)C(=O)N[C@H](C(N)=O)C(C)C) [SEQ ID NO: 216, prior art SCTR/GLP1R co-agonist (Witteloostuijn, 2017)]”, the concentration giving a half-maximal response (EC50) in assay [1] is 0.12 nM; in assay [2], 1.3 nM.

B1: SEQ ID NO: 216 (GUB06-046) (peptide)
peptide: H[Aib]EGTFTSDLSRLLEGAALQRFIQWLV-NH2
modifications: N-terminus assumed
SMILES: CC[C@H](C)[C@H](NC(=O)[C@H](Cc1ccccc1)NC(=O)[C@H](CCCNC(=N)N)NC(=O)[C@H](CCC(N)=O)NC(=O)[C@H](CC(C)C)NC(=O)[C@H](C)NC(=O)[C@H](C)NC(=O)CNC(=O)[C@H](CCC(=O)O)NC(=O)[C@H](CC(C)C)NC(=O)[C@H](CC(C)C)NC(=O)[C@H](CCCNC(=N)N)NC(=O)[C@H](CO)NC(=O)[C@H](CC(C)C)NC(=O)[C@H](CC(=O)O)NC(=O)[C@H](CO)NC(=O)[C@@H](NC(=O)[C@H](Cc1ccccc1)NC(=O)[C@@H](NC(=O)CNC(=O)[C@H](CCC(=O)O)NC(=O)C(C)(C)NC(=O)[C@@H](N)Cc1c[nH]cn1)[C@@H](C)O)[C@@H](C)O)C(=O)N[C@@H](CCC(N)=O)C(=O)N[C@@H](Cc1c[nH]c2ccccc12)C(=O)N[C@@H](CC(C)C)C(=O)N[C@H](C(N)=O)C(C)C
As for B1, the “pEC50 hSCTR” value in assay [3] and in assay [5] was 9.3 -log M each time. Further, the “pEC50 hGLPR1” value in assay [4] and in assay [6] was 10.4 -log M throughout.
